The labels stand for the following.
B1: library; a variant is named by its letters at N, in order (parent)
chain: GCUGUCACCGGUGCUUGGUACGUUAUAUUCAGCCGGUCUGAUGAGUCUNNNNNNAGACGAAACAGC

± gives the standard deviation of the averaged measurements.

Variants of B1 are the subject of the first data set. Kind of data set: normalized RNA/DNA level without ligand (relative to sTRSVctl = 100) (log10 (% of sTRSVctl)); HEK293T overexpressing SLC46A1; higher = less ribozyme self-cleavage, higher mRNA level. To be noted: without (6R,S)-folinic acid; ligand present: no. In short, it runs like this:
(§1)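 Only sequences with at least 100 DNA reads were analyzed, from HEK293T cells transfected with 4 µg per 6-well well of ribozyme switch library plasmids 72 h before RNA extraction with EDTA. Any ligand was added 1 h before transfection. RNA level was defined as RNA over DNA reads, normalized to a spiked-in non-cleaving sequence or to the top sequences, then scaled and log-transformed. The top set was 25 sequences, and the scaling was ×100 followed by log10.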
In the case of GUUUCC, the “normalized RNA/DNA level without ligand (log10)” value stood at 2.021 ± 0.015.
In the case of AUUUAA, the “normalized RNA/DNA level without ligand (log10)” value was determined as 1.953 ± 0.013.
Regarding AUUUAG, the “normalized RNA/DNA level without ligand (log10)” value is 1.949 ± 0.013.
On the same count and under the same terms, next, CUUCCG: 2.05 ± 0.029; CUUCCU: 1.996 ± 0.0085.
Turning to CUUCCC, the “normalized RNA/DNA level without ligand (log10)” value came to 2.01 ± 0.03.
Still for that read-out and setting: next, CUUCCA: 2.023 ± 0.014; GUUACA: 2.009 ± 0.012; GUUACU: 2.03 ± 0.027.
Turning to GUUACG, the “normalized RNA/DNA level without ligand (log10)” value worked out at 1.988 ± 0.012.
Consider UUUGCC, for which the “normalized RNA/DNA level without ligand (log10)” value was found to be 2.001 ± 0.004.
For GUUUUG, the “normalized RNA/DNA level without ligand (log10)” value worked out at 2.007 ± 0.0091.
Regarding GUUUUU, the “normalized RNA/DNA level without ligand (log10)” value was 2.015 ± 0.0093.
Take GUUGUU: the “normalized RNA/DNA level without ligand (log10)” value amounted to 2.03 ± 0.021.
As to GUUGUC, the “normalized RNA/DNA level without ligand (log10)” value was found to be 2.02 ± 0.025.
Consider AUUUUU, for which the “normalized RNA/DNA level without ligand (log10)” value came out at 1.989 ± 0.017.
For the variant CUUGCU, the “normalized RNA/DNA level without ligand (log10)” value worked out at 2.051 ± 0.0067.
Still for that read-out and setting: next, CUUGCC: 2.03 ± 0.0023; CUUGCG: 2.03 ± 0.017; CUUGCA: 2.019 ± 0.0087.
With AUUACU, the “normalized RNA/DNA level without ligand (log10)” value was found to be 2.042 ± 0.012.
On the same count and under the same terms, next, AUUACC: 2.019 ± 0.0035.
With AUUACG, the “normalized RNA/DNA level without ligand (log10)” value worked out at 1.941 ± 0.005.
Same read-out and setting: next, AUUACA: 1.992 ± 0.017; UUUAUA: 1.993 ± 0.015; UUUAUU: 1.988 ± 0.0096.
Turning to UUUAUC, the “normalized RNA/DNA level without ligand (log10)” value was 2.103 ± 0.0028.
Consider GUUCAG, for which the “normalized RNA/DNA level without ligand (log10)” value was found to be 1.963 ± 0.0042.
Still for that read-out and setting: next, GUUCAU: 2.019 ± 0.0083; CUUGGU: 2.01 ± 0.021; AUUCCA: 2.009 ± 0.0091.
On the same count and under the same terms, next, AUUCCC: 2.018 ± 0.019; AUUCCG: 1.997 ± 0.0068.
The same measure, in the same setting: next, AUUCCU: 2.044 ± 0.0048; UUUGAC: 2.012 ± 0.0044.
On to UUUCAC, for which the “normalized RNA/DNA level without ligand (log10)” value is 2.0237 ± 0.0014.
Still for that read-out and setting: next, UUUCAA: 1.997 ± 0.0084.
Take UUUCAU: the “normalized RNA/DNA level without ligand (log10)” value amounted to 1.993 ± 0.0093.
As for AUUGAU, the “normalized RNA/DNA level without ligand (log10)” value stood at 1.93 ± 0.0058.
With AUUGAC, the “normalized RNA/DNA level without ligand (log10)” value was 1.99 ± 0.016.
Turning to CUUAAA, the “normalized RNA/DNA level without ligand (log10)” value was determined as 1.9796 ± 8.1e-05.
With CUUAAU, the “normalized RNA/DNA level without ligand (log10)” value is 1.989 ± 0.0044.
Take CUUAAC: the “normalized RNA/DNA level without ligand (log10)” value turned out to be 1.9881 ± 0.0006.
For the variant CUUAAG, the “normalized RNA/DNA level without ligand (log10)” value amounted to 1.913 ± 0.0089.
Still for that read-out and setting: next, AUGUCU: 1.993 ± 0.017; AUUGUA: 1.941 ± 0.016; AUUGUU: 1.988 ± 0.0071.
As for AUUGUC, the “normalized RNA/DNA level without ligand (log10)” value is 2.06 ± 0.038.
For the variant GUUCUG, the “normalized RNA/DNA level without ligand (log10)” value is 1.981 ± 0.015.
Take GUUCUU: the “normalized RNA/DNA level without ligand (log10)” value came out at 2.0414 ± 0.0017.
Regarding GUUCUC, the “normalized RNA/DNA level without ligand (log10)” value was determined as 2.112 ± 0.0075.
In the case of AUGUGA, the “normalized RNA/DNA level without ligand (log10)” value turned out to be 1.944 ± 0.014.
For AUGUGU, the “normalized RNA/DNA level without ligand (log10)” value came to 1.83 ± 0.032.
For AUGUGC, the “normalized RNA/DNA level without ligand (log10)” value came to 1.97 ± 0.021.
As for CUUACG, the “normalized RNA/DNA level without ligand (log10)” value came out at 2.007 ± 0.0022.
On to CUUACA, for which the “normalized RNA/DNA level without ligand (log10)” value is 2.004 ± 0.01.
CUUACU: the “normalized RNA/DNA level without ligand (log10)” value was determined as 2 ± 0.023.
As for CUUACC, the “normalized RNA/DNA level without ligand (log10)” value amounted to 2.022 ± 0.0014.

Variants of B1 are the subject of a further data set. Kind of data set: normalized RNA/DNA level with ligand (relative to sTRSVctl = 100) (log10 (% of sTRSVctl)); HEK293T overexpressing SLC46A1; ligand concentration (+) RNA-Seq: 6 mM; higher = less ribozyme self-cleavage, higher mRNA level. To be noted: with (6R,S)-folinic acid; ligand present: yes. In short, it runs like this:
as §1
As for GUUUCC, the “normalized RNA/DNA level with ligand (log10)” value is 2 ± 0.068.
Turning to AUUUAA, the “normalized RNA/DNA level with ligand (log10)” value amounted to 1.99 ± 0.059.
Turning to AUUUAG, the “normalized RNA/DNA level with ligand (log10)” value was found to be 2.01 ± 0.026.
Consider CUUCCG, for which the “normalized RNA/DNA level with ligand (log10)” value stood at 2.06 ± 0.046.
Turning to CUUCCU, the “normalized RNA/DNA level with ligand (log10)” value was 2.02 ± 0.059.
Still for that read-out and setting: next, CUUCCC: 2.002 ± 0.007; CUUCCA: 2.02 ± 0.037.
With GUUACA, the “normalized RNA/DNA level with ligand (log10)” value amounted to 2.01 ± 0.053.
Take GUUACU: the “normalized RNA/DNA level with ligand (log10)” value came out at 2.03 ± 0.037.
Still for that read-out and setting: next, GUUACG: 2.02 ± 0.034; UUUGCC: 2.04 ± 0.037; GUUUUG: 2.02 ± 0.049.
As for GUUUUU, the “normalized RNA/DNA level with ligand (log10)” value was 2 ± 0.02.
Consider GUUGUU, for which the “normalized RNA/DNA level with ligand (log10)” value was 2.035 ± 0.018.
In the case of GUUGUC, the “normalized RNA/DNA level with ligand (log10)” value was 2.021 ± 0.019.
The same measure, in the same setting: next, AUUUUU: 2.01 ± 0.029.
The same measure, in the same setting: next, CUUGCU: 2.04 ± 0.012.
On the same count and under the same terms, next, CUUGCC: 2 ± 0.064; CUUGCG: 2.01 ± 0.029; CUUGCA: 2.03 ± 0.043.
For AUUACU, the “normalized RNA/DNA level with ligand (log10)” value was 2.04 ± 0.031.
On to AUUACC, for which the “normalized RNA/DNA level with ligand (log10)” value came to 2 ± 0.025.
As to AUUACG, the “normalized RNA/DNA level with ligand (log10)” value amounted to 2.026 ± 0.011.
Still for that read-out and setting: next, AUUACA: 2.01 ± 0.059; UUUAUA: 2 ± 0.03.
Consider UUUAUU, for which the “normalized RNA/DNA level with ligand (log10)” value worked out at 2.03 ± 0.033.
For UUUAUC, the “normalized RNA/DNA level with ligand (log10)” value came to 2.065 ± 0.016.
Same read-out and setting: next, GUUCAG: 2 ± 0.043.
In the case of GUUCAU, the “normalized RNA/DNA level with ligand (log10)” value was found to be 2.02 ± 0.034.
Still for that read-out and setting: next, CUUGGU: 2.01 ± 0.029; AUUCCA: 2.02 ± 0.047.
Take AUUCCC: the “normalized RNA/DNA level with ligand (log10)” value stood at 1.99 ± 0.052.
Consider AUUCCG, for which the “normalized RNA/DNA level with ligand (log10)” value came out at 2.037 ± 0.018.
Still for that read-out and setting: next, AUUCCU: 2.047 ± 0.018; UUUGAC: 2.011 ± 0.018.
Turning to UUUCAC, the “normalized RNA/DNA level with ligand (log10)” value amounted to 2.0028 ± 0.00095.
For the variant UUUCAA, the “normalized RNA/DNA level with ligand (log10)” value came to 2.01 ± 0.029.
As for UUUCAU, the “normalized RNA/DNA level with ligand (log10)” value was determined as 2.02 ± 0.022.
On the same count and under the same terms, next, AUUGAU: 2.01 ± 0.036; AUUGAC: 1.97 ± 0.046; CUUAAA: 1.968 ± 0.017.
For CUUAAU, the “normalized RNA/DNA level with ligand (log10)” value is 2.001 ± 0.011.
Take CUUAAC: the “normalized RNA/DNA level with ligand (log10)” value stood at 1.983 ± 0.0059.
With CUUAAG, the “normalized RNA/DNA level with ligand (log10)” value came to 1.986 ± 0.0033.
AUGUCU: the “normalized RNA/DNA level with ligand (log10)” value is 1.99 ± 0.02.
Take AUUGUA: the “normalized RNA/DNA level with ligand (log10)” value is 2 ± 0.02.
In the case of AUUGUU, the “normalized RNA/DNA level with ligand (log10)” value was 1.998 ± 0.008.
For the variant AUUGUC, the “normalized RNA/DNA level with ligand (log10)” value is 2.05 ± 0.066.
Same read-out and setting: next, GUUCUG: 1.987 ± 0.014; GUUCUU: 2.04 ± 0.028.
Take GUUCUC: the “normalized RNA/DNA level with ligand (log10)” value stood at 2.076 ± 0.02.
As for AUGUGA, the “normalized RNA/DNA level with ligand (log10)” value was determined as 2.014 ± 0.019.
In the case of AUGUGU, the “normalized RNA/DNA level with ligand (log10)” value was 1.97 ± 0.047.
For the variant AUGUGC, the “normalized RNA/DNA level with ligand (log10)” value was 1.981 ± 0.018.
Take CUUACG: the “normalized RNA/DNA level with ligand (log10)” value amounted to 2 ± 0.037.
Consider CUUACA, for which the “normalized RNA/DNA level with ligand (log10)” value worked out at 2 ± 0.022.
Turning to CUUACU, the “normalized RNA/DNA level with ligand (log10)” value stood at 2.02 ± 0.047.
Still for that read-out and setting: next, CUUACC: 1.995 ± 0.016.

The values above are taken from the supplement of paper PMC6757056.
